Source: patent US20220185900A1 (Regeneron, published 2022)
Substitutions are numbered along the chain they refer to. Names may count otherwise.

B1: H4H8085P (antibody, human IgG4, V domains shown)
VH: QVQLVESGGGVVQPGRSLRLSCTASGFTFDNYGMHWVRQAPGKGLEWVAVISYDGSNTFYADSVKGRFTISRDNSKNALYLQMNSLRAEDTAVYYCAKDLEFDILIGYPFDSWGRGTLVTVSS
VL: DIQLTQSPSFLSASVGDRVTITCWASQDISRYLAWYQQKPGKAPNLLIYAASTLQSGVPSRFSGSGSGTEFTLTINSLQPEDFATYYCQQLFSYPRTFGQGTKVEIK
notes: human IgG4 Fc (H4H prefix)
B2: H4H8056P (antibody, human IgG4, V domains shown)
VH: QVQLVESGGGVVQPGRSLRLSCAASGFTFRNYGMHWVRQAPGKGLEWVAVKRYDGSDEYFVDSVKGRFTISRDNSKNTLFLQMNSLRVDDTAVYYCARETPITGTTLDYWGQGTLVTVSS
VL: DIQMTQSPSSLSASVGDRVTITCRTSQSITNYLNWYQQKPGKAPKLLIYAASRSQSGVPSRFSGSGSGTDFTLTISSLQPEDFATYYCQQSYSTPLTFGGGTKVEIK
notes: human IgG4 Fc (H4H prefix)
B3: H4H8058P (antibody, human IgG4, V domains shown)
VH: QVQLVESGGGVGQPGRSLRLSCVASGFTFRNYGMHWVRQAPGKGLDWVAIIGYDGSKEYNVDSVKGRFTISRDNSKNTLYLQMNSLGAEDTAIYYCARESPITGTTFDYWGQGTLVTVSS
VL: B2 VL with S9P, T25A, T30G, L46I, S54L
notes: human IgG4 Fc (H4H prefix)
B4: H4H8087P (antibody, human IgG4, V domains shown)
VH: QVQLVESGGGVVQPGRSLRLSCAASGFSFSSYGMHWVRQAPGKGLEWVAVMWYDGSNEYYADSVKGRFIISRDNSKSTLYLEMNSLRAEDTALYYCAREDWDEGYYYGMDVWGQGTTVTVSS
VL: DIQMTQSPSSLFASVGDRVTITCRASQDIRYDLGWYQQKPGKAPKRLIYASSILESGVPSRFSGSGSGTEYTLTISTLQSEDFAIYYCLQHNSFPWTFGQGTKVEIK
notes: human IgG4 Fc (H4H prefix)
B5: H4H8067P (antibody, human IgG4, V domains shown)
VH: QVQLVESGGGVVQPGRSLRLSCVASGFTFSNYGMHWVRQAPGKGLEWVALIWYDGSNKYFADSVKGRFTISRDNSKRMMFLEMNSLRAEDTAIYYCTRDRLFDFWGQGTLVTVSS
VL: AIQMTQSPSSLSASVGDRVSITCRASQDIRHDLGWFHQKPGKAPKLLIYAASTLQSGVPSRFGGSGSGTDFTLTITSLQPEDFGTYYCLQDYNYPATFGQGTRLEIK
notes: human IgG4 Fc (H4H prefix)

Experiments:
[1] = target: T1, Macaca fascicularis (mf) RET.mmh (Macaca fascicularis); experiment: SPR Biacore T200, mAb capture, 37 C
T1 construct: also called monkey RET
T1 chain: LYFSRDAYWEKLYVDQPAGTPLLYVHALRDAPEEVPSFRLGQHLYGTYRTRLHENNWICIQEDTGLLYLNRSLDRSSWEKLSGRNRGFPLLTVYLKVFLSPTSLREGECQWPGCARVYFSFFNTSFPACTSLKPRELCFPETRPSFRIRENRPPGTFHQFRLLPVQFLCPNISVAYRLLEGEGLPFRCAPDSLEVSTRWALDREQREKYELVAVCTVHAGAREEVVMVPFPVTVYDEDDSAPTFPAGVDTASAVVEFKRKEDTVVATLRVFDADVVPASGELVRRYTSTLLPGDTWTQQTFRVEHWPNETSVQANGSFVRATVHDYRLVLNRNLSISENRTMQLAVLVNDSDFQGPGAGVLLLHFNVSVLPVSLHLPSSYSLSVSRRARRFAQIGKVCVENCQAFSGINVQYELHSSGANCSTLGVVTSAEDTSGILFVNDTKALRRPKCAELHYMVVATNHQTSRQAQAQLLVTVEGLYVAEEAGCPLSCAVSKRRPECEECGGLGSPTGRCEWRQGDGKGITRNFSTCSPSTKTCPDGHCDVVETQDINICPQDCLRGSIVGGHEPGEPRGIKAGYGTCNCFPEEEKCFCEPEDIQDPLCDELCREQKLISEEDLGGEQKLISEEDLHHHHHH
Protocol: (§1) Binding affinities and kinetic constants of human anti-RET antibodies were determined by surface plasmon resonance (Biacore T200) at […] (Tables 2-3). […] Binding equilibrium dissociation constants (KD) and dissociative half-lives (t_{1/2}) were calculated from the kinetic rate constants as: KD [M]=kd/kₐ; and t_{1/2}(min)=(ln2/(60*kd). Calculations were performed using BiacoreT200 evaluation software v1.0.

hRET.mFc [2] = target: T2, hRET.mFc (human); experiment: SPR Biacore T200, mAb capture, 37 C
T2 construct: also called dimeric human RET
Protocol: as §1

hRET.mmh [3] = target: T3, hRET.mmh (human, UniProt P07949 29-635, biotinylated in the ELISA of Example 4 (biot-hRET.mmh); not in the SPR of Example 3); experiment: SPR Biacore T200, mAb capture, 37 C
T3 construct: also called biot-hRET.mmh; soluble monomeric human RET
Protocol: as §1

[4] = target: T1, Macaca fascicularis (mf) RET.mmh; experiment: SPR Biacore T200, mAb capture, 25 C
Protocol: as §1

hRET.mFc [5] = target: T2, hRET.mFc; experiment: SPR Biacore T200, mAb capture, 25 C
Protocol: as §1

hRET.mmh [6] = target: T3, hRET.mmh; experiment: SPR Biacore T200, mAb capture, 25 C
Protocol: as §1

hRET.mmh [7] = target: T3, hRET.mmh; experiment: competition sandwich ELISA: 1 nM biot-hRET.mmh + antibody, plate-coated GDNF/GFRα1 co-complex
Protocol: The ability of anti-RET antibodies to block the binding of human RET to pre-complexed plate bound GDNF:GFRα1 was assessed using a competition sandwich ELISA.
Antibody-RET mixtures were incubated for 1 hour at RT and then transferred to microtiter plates previously coated with the hGDNF/hGFRα1 co-complex. Binding was allowed to proceed for 1 hr at RT followed by extensive washing. […] Plates were read at 450 nm and data analysis used a sigmoidal dose-response model within Prism™ software.
The absorbance values of the wells containing the highest concentration for each antibody were used to determine the blocking percent at maximum concentration antibody tested.

| Binder | Kd [1] | koff [1] | kon [1] | t½ [1] | Kd (hRET.mFc [2]) | koff (hRET.mFc [2]) | kon (hRET.mFc [2]) | t½ (hRET.mFc [2]) | Kd (hRET.mmh [3]) | koff (hRET.mmh [3]) | kon (hRET.mmh [3]) | t½ (hRET.mmh [3]) | Kd [4] | koff [4] | kon [4] | t½ [4] | Kd (hRET.mFc [5]) | koff (hRET.mFc [5]) | kon (hRET.mFc [5]) | t½ (hRET.mFc [5]) | further results |
| --- | --- | --- | --- | --- | --- | --- | --- | --- | --- | --- | --- | --- | --- | --- | --- | --- | --- | --- | --- | --- | --- |
| B1 | 8.3 nM | 0.00126 s⁻¹ | 152000 M⁻¹ s⁻¹ | 9 min | 5.5 nM | 0.00055 s⁻¹ | 99000 M⁻¹ s⁻¹ | 21 min | 6.23 nM | 0.000897 s⁻¹ | 144000 M⁻¹ s⁻¹ | 13 min | 3.4 nM | 0.000225 s⁻¹ | 66000 M⁻¹ s⁻¹ | 51 min | 1.33 nM | 0.000125 s⁻¹ | 94000 M⁻¹ s⁻¹ | 92 min | Kd (hRET.mmh [6]): 2.34 nM; koff (hRET.mmh [6]): 0.000187 s⁻¹; kon (hRET.mmh [6]): 80100 M⁻¹ s⁻¹; t½ (hRET.mmh [6]): 62 min; % Max Blocking (hRET.mmh [7]): 96%; IC50 (hRET.mmh [7]): < 0.25 nM |
| B2 | 10.3 nM | 0.00313 s⁻¹ | 303000 M⁻¹ s⁻¹ | 4 min | 5.62 nM | 0.00128 s⁻¹ | 227000 M⁻¹ s⁻¹ | 9 min | 8.88 nM | 0.00289 s⁻¹ | 326000 M⁻¹ s⁻¹ | 4 min | 2.69 nM | 0.000583 s⁻¹ | 216000 M⁻¹ s⁻¹ | 20 min | 1.47 nM | 0.000272 s⁻¹ | 185000 M⁻¹ s⁻¹ | 42 min | Kd (hRET.mmh [6]): 2.56 nM; koff (hRET.mmh [6]): 0.000539 s⁻¹; kon (hRET.mmh [6]): 211000 M⁻¹ s⁻¹; t½ (hRET.mmh [6]): 21 min; % Max Blocking (hRET.mmh [7]): 73% |
| B3 | 4.16 nM | 0.00226 s⁻¹ | 543000 M⁻¹ s⁻¹ | 5 min | 2.18 nM | 0.00121 s⁻¹ | 552000 M⁻¹ s⁻¹ | 10 min | 4.18 nM | 0.00221 s⁻¹ | 528000 M⁻¹ s⁻¹ | 5 min | 2.35 nM | 0.00054 s⁻¹ | 230000 M⁻¹ s⁻¹ | 21 min | 1.1 nM | 0.000259 s⁻¹ | 236000 M⁻¹ s⁻¹ | 45 min | Kd (hRET.mmh [6]): 2.09 nM; koff (hRET.mmh [6]): 0.000518 s⁻¹; kon (hRET.mmh [6]): 248000 M⁻¹ s⁻¹; t½ (hRET.mmh [6]): 22 min; % Max Blocking (hRET.mmh [7]): 93%; IC50 (hRET.mmh [7]): 0.25 nM |
| B4 | 1.57 nM | 0.00131 s⁻¹ | 836000 M⁻¹ s⁻¹ | 9 min | 0.349 nM | 0.000441 s⁻¹ | 1.26e+06 M⁻¹ s⁻¹ | 26 min | 0.968 nM | 0.00123 s⁻¹ | 1.27e+06 M⁻¹ s⁻¹ | 9 min | 0.424 nM | 0.000272 s⁻¹ | 641000 M⁻¹ s⁻¹ | 42 min | 0.087 nM | 0.000107 s⁻¹ | 1.22e+06 M⁻¹ s⁻¹ | 108 min | Kd (hRET.mmh [6]): 0.27 nM; koff (hRET.mmh [6]): 0.000242 s⁻¹; kon (hRET.mmh [6]): 896000 M⁻¹ s⁻¹; t½ (hRET.mmh [6]): 48 min; % Max Blocking (hRET.mmh [7]): 92%; IC50 (hRET.mmh [7]): < 0.25 nM |
| B5 | 196 nM | 0.0603 s⁻¹ | 307000 M⁻¹ s⁻¹ | 0.2 min | 2.24 nM | 0.000458 s⁻¹ | 204000 M⁻¹ s⁻¹ | 25 min | 7.31 nM | 0.00116 s⁻¹ | 159000 M⁻¹ s⁻¹ | 10 min | 385 nM | 0.0415 s⁻¹ | 108000 M⁻¹ s⁻¹ | 0.3 min | 0.94 nM | 0.000158 s⁻¹ | 168000 M⁻¹ s⁻¹ | 73 min | Kd (hRET.mmh [6]): 2.12 nM; koff (hRET.mmh [6]): 0.000235 s⁻¹; kon (hRET.mmh [6]): 111000 M⁻¹ s⁻¹; t½ (hRET.mmh [6]): 49 min; % Max Blocking (hRET.mmh [7]): 95%; IC50 (hRET.mmh [7]): < 0.25 nM |
